Measurements from publication doi:10.64898/2025.12.19.695442, “TRIM37 recognizes a bipartite degron to ubiquitinate centrosome substrates” (bioRxiv, 2025).
Changes are numbered by the printed parent chain. Names and notes keep the numbering of the source. Values belong to the molecule of their own block, whether it stands above or below them.

B1: TRIM37 (enzyme, UniProt O94972 1-964, looked up)
chain: MDEQSVESIAEVFRCFICMEKLRDARLCPHCSKLCCFSCIRRWLTEQRAQCPHCRAPLQLRELVNCRWAEEVTQQLDTLQLCSLTKHEENEKDKCENHHEKLSVFCWTCKKCICHQCALWGGMHGGHTFKPLAEIYEQHVTKVNEEVAKLRRRLMELISLVQEVERNVEAVRNAKDERVREIRNAVEMMIARLDTQLKNKLITLMGQKTSLTQETELLESLLQEVEHQLRSCSKSELISKSSEILMMFQQVHRKPMASFVTTPVPPDFTSELVPSYDSATFVLENFSTLRQRADPVYSPPLQVSGLCWRLKVYPDGNGVVRGYYLSVFLELSAGLPETSKYEYRVEMVHQSCNDPTKNIIREFASDFEVGECWGYNRFFRLDLLANEGYLNPQNDTVILRFQVRSPTFFQKSRDQHWYITQLEAAQTSYIQQINNLKERLTIELSRTQKSRDLSPPDNHLSPQNDDALETRAKKSACSDMLLEGGPTTASVREAKEDEEDEEKIQNEDYHHELSDGDLDLDLVYEDEVNQLDGSSSSASSTATSNTEENDIDEETMSGENDVEYNNMELEEGELMEDAAAAGPAGSSHGYVGSSSRISRRTHLCSAATSSLLDIDPLILIHLLDLKDRSSIENLWGLQPRPPASLLQPTASYSRKDKDQRKQQAMWRVPSDLKMLKRLKTQMAEVRCMKTDVKNTLSEIKSSSAASGDMQTSLFSADQAALAACGTENSGRLQDLGMELLAKSSVANCYIRNSTNKKSNSPKPARSSVAGSLSLRRAVDPGENSRSKGDCQTLSEGSPGSSQSGSRHSSPRALIHGSIGDILPKTEDRQCKALDSDAVVVAVFSGLPAVEKRRKMVTLGANAKGGHLEGLQMTDLENNSETGELQPVLPEGASAAPEEGMSSDSDIECDTENEEQEEHTSVGGFHDSFMVMTQPPDEDTHSSFPDGEQIGPEDLSFNTDENSGR
notes: TRIM37, E3 ubiquitin ligase; 459-964; The co-immunoprecipitation methods say only 'TRIM37 (1 ug)', the same amount as the Abcam protein of the ubiquitination assay; also called purified TRIM37; source: bought: Abcam ab269066
B2: TRIM37(C18R) (enzyme, UniProt O94972 1-964, looked up)
chain: B1 chain with C18R
notes: TRIM37 with C18R; cross-links are reported from the N-terminus (a.a. 1-458) and the tail (a.a. 459-964); source: purified
B3: Cep192 C-terminus fragment (2070-2537 aa), GFP-tagged (domain or fragment, UniProt Q8TEP8-3 2070-2537, looked up)
chain: REFLQPSSKASLESTSDLGASGKHGGNVSLDVLPVKGPQGSPLLSRAARPPLDQLASEEPWTVLPEHLILVAPSPCDMAKTGRFQIVNNSVRLLRFELCWPAHCLTVTPQHGCVAPESKLQILVSPNSSLSTKQSMFPWSGLIYIHCDDGQKKIVKVQIREDLTQVELLTRLTSKPFGILSPVSEPSVSHLVKPMTKPPSTKVEIRNKSITFPTTEPGETSESCLELENHGTTDVKWHLSSLAPPYVKGVDESGDVFRATYAAFRCSPISGLLESHGIQKVSITFLPRGRGDYAQFWDVECHPLKEPHMKHTLRFQLSGQSIEAENEPENACLSTDSLIKIDHLVKPRRQAVSEASARIPEQLDVTARGVYAPEDVYRFRPTSVGESRTLKVNLRNNSFITHSLKFLSPREPFYVKHSKYSLRAQHYINMPVQFKPKSAGKFEALLVIQTDEGKSIAIRLIGEALGKN
notes: Cep192 residues 2070-2537 (ASH6, ASH7, ASH8 and the IDRs between them); also called C-terminal Cep192; Cep192 C-terminal fragment; source: purified (Ni-NTA, gel filtration)

How the values were obtained:
[1] = target: Centrobin peptide motif (Homo sapiens) (UniProt Q8N137); conditions: cited from earlier work
[2] = target: GFP-Cep192(IDR+ASH8); assay: pull-down; supernatant depletion: 30 nM TRIM37 with a range of GFP-Cep192(IDR+ASH8) concentrations and GFP-Trap magnetic particles, 25 mM HEPES pH 7.4, 150 mM KCl, 1 mM DTT, 1 hr at room temperature; unbound TRIM37 in the supernatant by Western blot; one phase association fit
[3] = target: T1, full-length Cep192 tagged with GFP (UniProt Q8TEP8-3 1-2537); assay: pull-down; purified GFP fusion (1 uM) incubated with TRIM37 (1 ug) 1 hr at 37°C, precipitated with GFP-Trap magnetic particles; washes 150 mM KCl, 25 mM HEPES, 1% glycerol, 0.05% NP-40, last wash 500 mM KCl; Western blot against TRIM37; conditions: both partners purified
T1 construct: Cep192, full length (2537 aa by the printed range 2070-2537); MW with GFP = 307 kDa; also called GFP-Cep192; source: baculovirus-infected SF9 insect cells, purified (Ni-NTA, gel filtration)

[4] = target: the molecule itself; assay: cross-linking; XL-MS: 5 uM TRIM37(C18R) and 5 uM IDR+ASH8, 100 nM ZnCl2, 25 mM HEPES, 150 mM KCl pH 7.4, 20 min at 37°C, 1 mM DSSO 5 min; band of the complex cut from SDS-PAGE; calculated FDR <1%
[5] = target: B1; assay: pull-down; purified GFP fusion (1 uM) incubated with TRIM37 (1 ug) 1 hr at 37°C, precipitated with GFP-Trap magnetic particles; washes 150 mM KCl, 25 mM HEPES, 1% glycerol, 0.05% NP-40, last wash 500 mM KCl; Western blot against TRIM37; conditions: both partners purified

Molecule: TRIM37 MATH (from UniProt O94972)
Kd [1]: 14 µM

Kd [2]: 75 nM
Molecule: TRIM37 (from UniProt O94972 1-964)

Molecule: B1
binding result [3]: binds

Molecule: B2
binding result [4]: binds

Molecule: B3
binding result [5]: binds
